Source: article PMC4682084 (Scientific Reports, 2015)

Experiments:
[1] = molecular target: fully human monoclonal agonistic anti-TRAIL-R2 antibody KMTR2 (human)
[2] = molecular target: T1, ecTRAIL-R2:Fc fusion protein (human, UniProt O14763); experiment: SEC; antibody mixed with ecTRAIL-R2:Fc in PBS at a molar ratio of 1:1, 30 min 37 °C; Superdex 200 10/300 GL in D-PBS(-); settings: both partners purified
T1 construct: TRAIL receptor 2 (TRAIL-R2, DR5), human, extracellular region, residues Ala54-Lys181; also called ecTRAIL-R2 fused with Fc; soluble TRAIL-R2 fused with the Fc region of IgG; source: CHO cells, purified (HiTrap rProtein A FF); not shown: Fc (human IgG1), C-terminal, kept

[3] = molecular target: T2, endogenous TRAIL-R2 in Colo205 cells (human (endogenous in Colo205), UniProt O14763); experiment: immunostaining of cells or tissue; Colo205 cells incubated with gel filtration fractionated monomeric antibody, 100 ng/mL, 1.5 h 37 °C; Alexa 488-labeled anti-human IgG Fab; confocal microscopy; settings: one partner purified
T2 construct: TRAIL receptor 2 (TRAIL-R2, DR5), endogenous on the human colorectal adenocarcinoma cell line Colo205; also called DR5; membrane TRAIL-R2; source: endogenous, on Colo205 cells

[4] = molecular target: T3, extracellular region of TRAIL-R2 (ecTRAIL-R2) (human, UniProt O14763); experiment: SEC-MALS; ecTRAIL-R2 mixed with excess KMTR2-Fab, RT 1 h; Superdex 200 HR 10/30, 20 mM HEPES pH 7.2, 0.2 M NaCl; multi-angle light scattering (mini-DAWN); settings: both partners purified
T3 construct: TRAIL receptor 2 (TRAIL-R2, DR5), human, extracellular region, residues Ala54-Lys181; also called DR5; source: CHO cells as ecTRAIL-R2:Fc fusion, purified (rProtein A), digested with enterokinase, cation-exchange chromatography; not shown: Fc (human IgG1), C-terminal, cleaved

fully human monoclonal agonistic anti-TRAIL-R2 antibody KMTR2
inhibition of the proliferation of Colo205 cells (MTS), 1-100 ng/mL, without cross-linking reagent [1]: 6 to 7 ng/mL

B1: KMTR2 LkN53R mutant (Asn53 to Arg in the light kappa chain) (antibody, V domains shown)
VH: QVQLVQSGAEMKKPGASVKVSCKTSGYTFTNYKINWVRQAPGQGLEWMGWMNPDTDSTGYPQKFQGRVTMTRNTSISTAYMELSSLRSEDTAVYYCARSYGSGSYYRDYYYGMDVWGQGTTVTVSS
VL: EIVLTQSPATLSLSPGERATLSCRASQSVSSYLAWYQQKPGQAPRLLIYDASRRATGIPARFSGSGSGTDFTLTISSLEPEDFAVYYCQQRSNWPLTFGGGTKVEIK
notes: as the heavy chain of m5; Fab part (Gln1-Ser226) in PDB 3X3F and 3X3G; as the light kappa chain of m5 (Glu1-Cys214 in PDB 3X3F and 3X3G) with Asn53 changed to Arg; Whole IgG made from the N5KG4-KMTR2 vector by site-directed mutagenesis; copies: 2 + 2
binding result [2]: binds | binding result [3]: binds

B2: Fab fragment derived from KMTR2 (KMTR2-Fab) (Fab, V domains shown)
VH: QVQLVQSGAEMKKPGASVKVSCKTSGYTFTNYKINWVRQAPGQGLEWMGWMNPDTDSTGYPQKFQGRVTMTRNTSISTAYMELSSLRSEDTAVYYCARSYGSGSYYRDYYYGMDVWGQGTTVTVSS
VL: EIVLTQSPATLSLSPGERATLSCRASQSVSSYLAWYQQKPGQAPRLLIYDASNRATGIPARFSGSGSGTDFTLTISSLEPEDFAVYYCQQRSNWPLTFGGGTKVEIK
notes: heavy chain of KMTR2-Fab; light kappa chain of KMTR2; Fully human monoclonal antibody from KM mice; source: papain digestion of recombinant KMTR2, purified by cation-exchange chromatography
stoichiometry N [4]: 1
